± gives the standard deviation.
Assay: protein stability index of a GFP-peptide fusion (GPS, HEK-293T) (PSI 1-6); higher = more stable
Settings: c terminus: a fixed tail appended
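Also: 24-mer peptide tiles fused after GFP, lentivirally expressed, FACS-sorted into six equal bins by GFP/DsRed ratio, decoded by Illumina sequencing, PSI is the read-weighted mean bin number.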

Sequence | protein stability index (treatment: DMSO) | protein stability index (treatment: MLN4924 1 uM, 8 h)
TQAHIQECKHPSVFQHGDNSFRLL [MCOLN1] | 2.78 ± 0.11 | 2.92 ± 0.16
IKGKEGSALTEGAKEEGGEEVAKA [EPB41L3] | 5.81 ± 0.17 | 5.86 ± 0.12
HNNNNNCEENEQSLPPPAGLNSSW [BNIP3L] | 4.96 ± 0.17 | 5.09 ± 0.078
SNCISGVCSVRGGEGRSRGSANDY [KRT71] | 3.93 ± 0.36 | 4.23 ± 0.084
YSKTWTKQPDLTMVRKIGCYAAMK [GAN] | 2.92 ± 0.96 | 2.42 ± 0.19
FGNSEKPETMTCRLSNNQRYLFLD [ZFYVE21] | 2.44 ± 0.42 | 2.1 ± 0.54
LLGSSTACIVVLDRTSHRLHTANL [PPTC7] | 2.66 ± 0.39 | 2.46 ± 0.32
AFASGSDDATCRLYDLRADREVAI [GNB5] | 3.12 ± 0.22 | 2.95 ± 0.11
ILHLICLLEKVPCTLEQDHFKKQT [FEM1C] | 2.82 ± 0.71 | 2.25 ± 0.45
LFQRKLSWIKMTKLEYEEIALDLT [FAN1] | 3.02 ± 0.39 | 2.45 ± 0.24
LLCNAITGITLLRVKFKSQQHRQG [PTGFR] | 2.38 ± 0.46 | 2.21 ± 0.77
YISLLLRAEPYPTSRFGSQCMQPN [NR2F2] | 2.55 ± 0.5 | 2.43 ± 0.39
QDVVQAADLLLLTDLKTLCCEFLE [GAN] | 2.55 ± 0.13 | 2.6 ± 0.27
DAQEIMQSLRDLGVKISEQQAEKI [SLC25A25] | 3.81 ± 0.21 | 3.79 ± 0.47
NREVATNSELVQSGKSEISELRRT [KRT17] | 5 ± 0.22 | 5.09 ± 0.24
EESEKAMQERVQRLEAARLSLEEE [LRRC45] | 5.48 ± 0.2 | 5.57 ± 0.091
ELVVRFFACPSKTDFFKNIMNFID [KCNA1] | 2.32 ± 0.58 | 2.33 ± 0.52
LYNMDLSDDHIRVIVQLHKLRHLD [ZER1] | 2.25 ± 0.38 | 2.56 ± 0.37

Sequence | protein stability index (treatment: DMSO) | protein stability index (treatment: MLN4924 1 uM, 8 h)
PDQEAEPQEAAGAQGRAGAPVPEP [EPB41L3] | 5.69 ± 0.21 | 5.69 ± 0.23
AQEKAADVQARLNRSDHGIFHSRT [FCHSD1] | 4.19 ± 0.072 | 4.37 ± 0.48
WERVHLIVAGGYDERVLENVEHYQ [ALG2] | 2.33 ± 0.19 | 2.48 ± 0.3
HQLLEPIRDFEARKCPVHGKTMEL [TRIM29] | 3.89 ± 0.17 | 3.84 ± 0.17
ASETFNYSAIDRVKSRGKRLALEK [PI4K2A] | 4.22 ± 0.044 | 4.4 ± 0.26
YVSLGRLGAAKGALHPGCFAPLHP [CEBPB] | 3.44 ± 0.94 | 2.73 ± 0.17
RTPPKSPGDPSKDRAAKRLSLESE [TPPP] | 5.3 ± 0.14 | 4.99 ± 0.25
HQDVPSQDDSKPTQRQFTILNFND [AASDHPPT] | 4.59 ± 0.27 | 4.76 ± 0.32
PPPVESELALFQMSVLWLEHDRET [KLHL14] | 3.18 ± 0.085 | 3.25 ± 0.23
CETCVGSWSIQMRQHHHQSSFPGS | 2.37 ± 0.3 | 2.34 ± 0.44
TPKLDCFLSGMEAAPRTLAAHPPL [TBX6] | 3.18 ± 0.17 | 3.48 ± 0.2
IITIGYNVYHSYDLPWFRTLSWYF [CDS2] | 3.08 ± 0.23 | 3.2 ± 0.27
HSVTGFLCEPDPVHFSEAIEKFIR [ALG2] | 2.8 ± 0.21 | 2.93 ± 0.26
KLPFCAMGVSSVIHPKNPHAPTIH [CPOX] | 2.52 ± 0.2 | 2.52 ± 0.31
VHRLDLILCNKTAYQEVFKPENIS [SMG5] | 2.12 ± 0.48 | 2.15 ± 0.4
RIDSQFLIGDTLLVAPVLEPGKQE [MYORG] | 3.77 ± 0.18 | 3.81 ± 0.26
AKDLRAPPEQGKIFIARRSLLDEL [SOAT1] | 3.23 ± 0.37 | 3.15 ± 0.33
RMAAPRAEALFDFTGNSKLELNFK [NCF4] | 3.33 ± 0.2 | 3.46 ± 0.28

Reference: the supplement of paper PMC10567573
